Measurements from patent publication EP1674575A2 (LA JOLLA INSTITUTE FOR ALLERGY AND IMMUNOLOGY, dated 2006).
Numbering of substitutions follows the chain as printed.

B1: HVEM:Fc (extracellular region of HVEM, 1 to K184, fused to the Fc region of human IgG1) (Fc fusion, UniProt Q92956 39-184, looked up)
chain: LPSCKEDEYPVGSECCPKCSPGYRVKEACGELTGTVCEPCPPGTYIAHLNGLSKCLQCQMCDPAMGLRASRNCSRTENAVCGCSPGHFCIVQDGDHCAACRAYATSSPGQRVQKGGTESQDTLCQNCPPGTFSPNGTLEECQHQTK
notes: range 1-184; Bivalent chimeric protein made in baculovirus; also called huHVEM:Fc; hu HVEM:Fc; not shown: Fc region of human IgG1
B2: Fas:Fc (Fc fusion, UniProt P25445 26-173, looked up)
chain: QVTDINSKGLELRKTVTTVETQNLEGLHHDGQFCHKPCPPGERKARDCTVNGDEPDCVPCQEGKEYTDKAHFSSKCRRCRLCDEGHGLEVEINCTRTQNTKCRCKPNFFCNSTVCEHCDPCTKCEHGIIKECTLTSNTKCKEEGSRSN
notes: not shown: Fc region of human IgG1
B3: mouse LTβR:Fc (amino acid residues 1 to Met221 of the extracellular domain of mouse LTβR) (Fc fusion, UniProt P50284 31-221, looked up)
chain: QLVPPYRIENQTCWDQDKEYYEPMHDVCCSRCPPGEFVFAVCSRSQDTVCKTCPHNSYNEHWNHLSTCQLCRPCDIVLGFEEVAPCTSDRKAECRCQPGMSCVYLDNECVHCEEERLVLCQPGTEAEVTDEIMDTDVNCVPCKPGHFQNTSSPRARCQPHTRCEIQGLVEAAPGTSYSDTICKNPPEPGAM
notes: range 1-221; also called mLTβR:Fc; murine LTβR:Fc; not shown: Fc part
B4: TNFR60:Fc (Fc fusion, UniProt P19438 30-211, looked up)
chain: LVPHLGDREKRDSVCPQGKYIHPQNNSICCTKCHKGTYLYNDCPGPGQDTDCRECESGSFTASENHLRHCLSCSKCRKEMGQVEISSCTVDRDTVCGCRKNQYRHYWSENLFQCFNCSLCLNGTVHLSCQEKQNTVCTCHAGFFLRENECVSCSNCKKSLECTKLCLPQIENVKGTEDSGTT
notes: also called TNFR:Fc; soluble type I TNFR protein (TNFR:Fc); not shown: Fc region of human IgG1
B5: LIGHTt66-FLAG mutant Y173F (ligand, human, UniProt O43557 67-240, looked up, not shown: small tags and cut ends)
chain: EMVTRLPDGPAGSWEQLIQERRSHEVNPAAHLTGANSSLTGSGGPLLWETQLGLAFLRGLSYHDGALVVTKAGYYYIYSKVQLGGVGCPLGLASTITHGLYKRTPRFPEELELLVSQQSPCGRATSSSRVWWDSSFLGGVVHLEAGEKVVVRVLDERLVRLRDGTRSYFGAFMV
notes: range 67-240; Homotrimer, from transiently transfected 293T cells
B6: LIGHTt66-FLAG mutant L120Q (ligand, human, UniProt O43557 67-240, looked up, not shown: small tags and cut ends)
chain: B5 chain with L54Q, F107Y
notes: as for B5
B7: mouse HVEM:Fc (mouse HVEM Met1 to Ser205 fused to the Fc region of human IgG1) (Fc fusion, UniProt Q80WM9 39-205, looked up)
chain: QPSCRQEEFLVGDECCPMCNPGYHVKQVCSEHTGTVCAPCPPQTYTAHANGLSKCLPCGVCDPDMGLLTWQECSSWKDTVCRCIPGYFCENQDGSHCSTCLQHTTCPPGQRVEKRGTHDQDTVCADCLTGTFSLGGTQEECLPWTNCSAFQQEVRRGTNSTDTTCSS
notes: range 1-205; also called mHVEM:Fc; murine HVEM:Fc; not shown: Fc region of human IgG1 (printed IgC1) at the 3' end of the HVEM insert
B8: LIGHTt66-FLAG mutant Q117T (ligand, human, UniProt O43557 67-240, looked up, not shown: small tags and cut ends)
chain: B5 chain with Q51T, F107Y
notes: as for B5
B9: recombinant soluble LTα1β2 (ligand)
chain 1: LPGVGLTPSAAQTARQHPKMHLAHSTLKPAAHLIGDPSKQNSLLWRANTDRAFLQDGFSLSNNSLLVPTSGIYFVYSQVVFSGKAYSPKATSSPLYLAHEVQLFSSQYPFHVPLLSSQKMVYPGLQEPWLHSMYHGAAFQLTQGDQLSTHTDGIPHLVLSPSTVFFGAFAL
chain 2: QDQGGLVTETADPGAQAQQGLGFQKLPEEEPETDLSPGLPAAHLIGAPLKGQGLGWETTKEQAFLTSGTQFSDAEGLALPQDGLYYLYCLVGYRGRAPPGGGDPQGRSVTLRSSLYRAGGAYGPGTPELLLEGAETVTPVLDPARRQGYGPLWYTSVGFGGLVQLRRGERVYVNISHPDMVDFARGKTFFGAVMVG

How the values were obtained:
[1] = biological target: T1, p30 (LIGHT), the 30 kDa cell surface HVEM ligand of activated II-23.D7 cells and human T cells (human, UniProt O43557 1-240); test: flow cytometry, saturation binding to activated II-23.D7 cells
T1 construct: whole, on cells; Endogenous protein, tested on the cell surface in flow cytometry and from detergent extracts in precipitations; also called 30 kDa protein

[2] = biological target: B8; test: SPR (BIAcore), receptor:Fc amine-coupled, LIGHT mutant as analyte 100-500 nM
[3] = biological target: B5; test: as above
[4] = biological target: T2, LTα homotrimer (UniProt P01374 35-205); test: precipitation of 35S-labeled secreted proteins, SDS-PAGE
T2 construct: also called recombinant LTα; secreted LTα
T2 sequence (looked up): B9 chain 1

[5] = biological target: T3, LTαTyr108Phe (UniProt P01374 35-205); test: competition for HVEM:Fc binding to II-23.D7 cells, flow cytometry (Figure 3)
T3 construct: also called LTαY108F; Y108F
T3 sequence (looked up): B9 chain 1 with Y108F

[6] = biological target: B5; test: SPR (BIAcore)
[7] = biological target: T4, TNF (UniProt P01375 77-233); test: precipitation of 35S-labeled secreted proteins of II-23.D7 cells, SDS-PAGE
T4 construct: also called TNF (17 kDa)

[8] = biological target: T1, p30 (LIGHT), the 30 kDa cell surface …; test: competition for HVEM:Fc binding to activated II-23.D7 cells, flow cytometry
[9] = biological target: T5, LTα1β2 complex (LTβ 33 kDa and LTα 23-25 kDa) from detergent extracts of PMA activated II-23.D7 cells (human, UniProt P01374 35-205; Q06643 1-244); test: precipitation with murine LTβR:Fc, 2D electrophoresis (Figure 4A)
T5 construct: Endogenous membrane complex, precipitated from detergent extracts; also called LTβ and LTα complex
T5 sequence (looked up) 1: B9 chain 1
T5 sequence (looked up) 2: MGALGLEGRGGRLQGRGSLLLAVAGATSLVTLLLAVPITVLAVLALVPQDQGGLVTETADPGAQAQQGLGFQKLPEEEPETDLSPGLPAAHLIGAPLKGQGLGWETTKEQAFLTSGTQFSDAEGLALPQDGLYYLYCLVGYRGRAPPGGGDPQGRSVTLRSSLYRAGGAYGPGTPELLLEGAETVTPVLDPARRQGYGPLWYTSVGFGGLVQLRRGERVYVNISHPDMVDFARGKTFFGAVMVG

[10] = biological target: T1, p30 (LIGHT), the 30 kDa cell surface …; test: precipitation from detergent extracts of activated II-23.D7 cells; competition by flow cytometry
[11] = biological target: T6, gD-1 (Δ290-299t) (herpes simplex virus type 1, UniProt Q69091 26-331); test: binding inhibition, flow cytometry
T6 construct: also called gD-1 (Δ1290 - 299t)

[12] = biological target: LTβR (lymphotoxin β receptor) expressed by cells (human, UniProt P36941 31-435); test: cell-based or functional assay
[13] = biological target: B3; test: ELISA, receptor:Fc capture, anti-FLAG detection
[14] = biological target: T7, human LTβR:Fc (human, UniProt P36941 31-227, limits assumed); test: SPR (BIAcore), receptor:Fc amine-coupled, LIGHT mutant as analyte 100-500 nM
T7 construct: also called huLTβR:Fc; hu LTβR:Fc; not shown: Fc region of human IgG1

[15] = biological target: B1; test: SPR (BIAcore)
[16] = biological target: B6; test: ELISA, receptor:Fc capture, anti-FLAG detection
[17] = biological target: B5; test: ELISA, receptor:Fc capture, anti-FLAG detection

T7 sequence (P36941 31-227 limits assumed): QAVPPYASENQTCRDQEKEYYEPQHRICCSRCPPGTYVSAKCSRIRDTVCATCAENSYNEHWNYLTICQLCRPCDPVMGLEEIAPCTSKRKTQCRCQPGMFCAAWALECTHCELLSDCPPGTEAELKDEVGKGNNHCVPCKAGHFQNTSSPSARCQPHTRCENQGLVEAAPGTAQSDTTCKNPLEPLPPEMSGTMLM
T4 sequence (P01375 77-233 limits assumed): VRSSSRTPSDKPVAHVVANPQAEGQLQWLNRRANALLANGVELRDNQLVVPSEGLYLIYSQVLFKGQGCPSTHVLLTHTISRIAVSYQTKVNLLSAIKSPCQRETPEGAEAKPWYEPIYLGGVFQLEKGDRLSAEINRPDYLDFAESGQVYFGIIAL
T6 sequence (Q69091 26-314, tags or fused parts left off): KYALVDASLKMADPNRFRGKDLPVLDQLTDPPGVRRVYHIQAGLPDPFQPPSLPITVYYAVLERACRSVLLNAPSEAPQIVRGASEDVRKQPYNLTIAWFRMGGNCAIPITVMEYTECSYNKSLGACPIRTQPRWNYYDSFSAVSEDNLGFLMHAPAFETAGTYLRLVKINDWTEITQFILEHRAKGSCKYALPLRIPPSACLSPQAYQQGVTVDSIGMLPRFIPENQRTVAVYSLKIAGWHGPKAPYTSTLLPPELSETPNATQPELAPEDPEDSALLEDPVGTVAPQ

B1 gave an EC50 [1] of about 20 nM, a Kd [2] of 0.3 nM and a kon [2] of 20000 M⁻¹ s⁻¹. It also gave a Kd [3] of 173 nM, a koff [3] of 0.0033 s⁻¹ and a kon [3] of 19000 M⁻¹ s⁻¹. The binding result [4] was “binds”, the binding result [5] was “no binding” and the Kd [6] was 180 nM. B1: no binding [7].

B2: no binding [8].

B3: binds [9].

B4: no binding [10]; no binding [11].

B5 was tested, and the “fold induction of ICAM expression by NHDF cells (flow cytometry, 20 nM)” value [12] was 2.5 fold, the binding result [13] was “no binding” and the Kd [14] was 31 nM. The koff [14] was 0.0011 s⁻¹, the kon [14] was 37000 M⁻¹ s⁻¹ and the “fold lower affinity than LIGHT t66” value [15] was over 40 fold.

B6: binds [13].

B7: binds [16]; no binding [17].

B8 was tested, and the Kd [14] was 1.5 nM and the koff [14] was 4.5e-05 s⁻¹.

B9 was tested, and the “fold decrease in relative anti-HCMV activity (against LTα and LIGHT)” value [12] was about 10 fold.
